Data reported in patent US20260167677A1 (Memorial Sloan Kettering, published 2026).

T1: bovine ADAM10 disintegrin+cysteine-rich domain construct (D+C, residues 455-646) (bovine, UniProt Q10741 455-646)
T1 construct: range 455-646; also called ADAM10 D+C (b); bovine (b) ADAM10 D+C
T1 sequence (looked up): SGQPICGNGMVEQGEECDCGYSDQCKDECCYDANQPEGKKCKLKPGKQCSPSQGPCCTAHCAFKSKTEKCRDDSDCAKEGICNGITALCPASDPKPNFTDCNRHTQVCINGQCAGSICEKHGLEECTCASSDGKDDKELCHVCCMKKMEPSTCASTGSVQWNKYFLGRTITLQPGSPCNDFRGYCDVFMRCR

T2: human ADAM10 D+C (455-650) (human, UniProt O14672 455-650)
T2 construct: range 455-650; also called human (h) ADAM10 D+C; human (h) ADAM10 D-C
T2 sequence (looked up): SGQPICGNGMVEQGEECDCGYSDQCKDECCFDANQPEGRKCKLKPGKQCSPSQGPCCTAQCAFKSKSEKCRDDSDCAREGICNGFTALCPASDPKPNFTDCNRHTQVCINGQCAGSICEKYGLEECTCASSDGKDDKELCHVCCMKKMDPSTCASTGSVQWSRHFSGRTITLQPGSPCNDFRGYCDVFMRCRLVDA

T3: human ADAM10 expressed on the cell surface (LIM1215, COLO205, HEK293, HEK293 transfected with full-length … (human, UniProt O14672 214-748))
T3 construct: whole, on cells; also called tumor-expressed ADAM10; ADAM10 expressed on HEK293 cells
T3 sequence (looked up): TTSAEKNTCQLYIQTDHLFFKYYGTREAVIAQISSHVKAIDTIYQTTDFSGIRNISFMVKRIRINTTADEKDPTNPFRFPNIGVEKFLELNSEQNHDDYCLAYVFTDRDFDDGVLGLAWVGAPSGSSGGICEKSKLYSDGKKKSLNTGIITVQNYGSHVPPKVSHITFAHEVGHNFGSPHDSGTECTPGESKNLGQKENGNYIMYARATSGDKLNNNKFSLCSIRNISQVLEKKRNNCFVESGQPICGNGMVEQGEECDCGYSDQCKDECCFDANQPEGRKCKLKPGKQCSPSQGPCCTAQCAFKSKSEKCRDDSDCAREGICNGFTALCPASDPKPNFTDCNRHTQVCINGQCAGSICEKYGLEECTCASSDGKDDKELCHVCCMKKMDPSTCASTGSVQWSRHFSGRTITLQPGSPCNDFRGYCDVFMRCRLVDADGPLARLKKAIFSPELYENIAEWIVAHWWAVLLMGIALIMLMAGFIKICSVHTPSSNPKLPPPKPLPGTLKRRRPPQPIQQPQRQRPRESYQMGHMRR

T4: ADAM10 D+C domains construct (species not stated) (Bos taurus (Bovine), UniProt Q10741 455-646)
T4 construct: also called ADAM10 D+C antigen; isolated recombinant ADAM10 D+C region
T4 sequence: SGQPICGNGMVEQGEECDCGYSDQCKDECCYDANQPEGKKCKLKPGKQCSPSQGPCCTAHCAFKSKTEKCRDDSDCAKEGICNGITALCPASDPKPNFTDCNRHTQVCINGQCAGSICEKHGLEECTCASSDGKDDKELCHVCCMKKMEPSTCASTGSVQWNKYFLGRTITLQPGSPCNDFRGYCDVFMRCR


Tests used:
[1] = molecular target: T1, bovine ADAM10 disintegrin+cysteine-rich …; assay: ELISA, 1H5 IgG titrated on immobilised bovine ADAM10 D+C, absorbance 450 nm [cont.) E]
[2] = molecular target: recombinant ADAM10 ECD (species not stated); assay: cell-based or functional assay
[3] = molecular target: T2, human ADAM10 D+C (455-650); assay: ELISA, 1H5 IgG titrated on immobilised human ADAM10 D+C, absorbance 450 nm [cont.) E]
[4] = molecular target: T3, human ADAM10 expressed on the cell …; assay: cell-based ELISA, 1H5 signal normalised to mAb1427 signal
Experimental: Briefly, 5×10⁴ cells/well were immobilized on 96-well ELISA plates (Greiner bio-one) with 1% paraformaldehyde for 2 hours at 37° C. The plate was washed thrice with PBS and blocked for 2 hours at room temperature with 4% non-fat dry milk. The anti-ADAM10 mAbs were added in varying concentrations. […] The data was recorded at 450 nm.

[5] = molecular target: T5, recombinant ADAM10 ECD (species not stated); assay: biolayer interferometry (data not shown)
T5 construct: extracellular domain; also called full recombinant ADAM10 ECD

[6] = molecular target: T4, ADAM10 D+C domains construct (species …); assay: biolayer interferometry (data not shown)
[7] = molecular target: T4, ADAM10 D+C domains construct (species …); assay: ELISA, 1H5 Fab titrated on ADAM10 D+C, absorbance 450 nm
Experimental: To perform the competitive ELISA, wells were coated with 100 μl of ADAM10 D+C (concentration 2 μg/ml). After washes with phosphate buffer solution (PBS), the wells were blocked with 4% non-fat dry milk. […] Color was developed using a TMB substrate kit and data was recorded at 450 nm. […] The final concentration of each mAb in the mixture was the same as when added individually. The mixture was added to the wells and incubated for 1 hour.

Row | EC50 (read off the curve) [1] | augmentation of fluorogenic substrate peptide cleavage, relative to 8C7 [2] | EC50 (read off the curve) [3] | fold better binding to tumor-expressed ADAM10 than to ADAM10 expressed on HEK293 cells [4] | Kd [5] | Kd [6] | EC50 [7] | Binder
1 | ~3 nM | ~2 fold | ~3 nM | ~14 fold | ~200 nM | 3.3 nM | – | 1H5 IgG (fully human anti-ADAM10 monoclonal antibody) (antibody, V domains shown, the amino acid entries 14 and 15 are used here; also called 1H5 mAb; mAb 1H5) VH: QVQLVESGGGLVKPGGSLRLSCAASGFTFSDYYMSWIRQAPGKGLEWVSYISSSGSTIYYADSVKGRFTISRDNAKNSLYLQMNSLRAEDTAVYYCARDFYDSKIFDYWGQGTLVTVSS VL: DIQMTQSPSSLSASVGDRVTITCRASQSISSYLNWYQQKPGKAPKLLIYAASSLQSGVPSRFSGSGSGTDFTLTISSLQPEDVGVYYCMEGLKTPFTFGPGTKLEIKR
2 | – | – | – | – | – | – | 15 nM | 1H5 Fab (Fab, V domains shown, also called 1H5 Fab fragment; Fab fragment of 1H5) VH: QVQLVESGGGLVKPGGSLRLSCAASGFTFSDYYMSWIRQAPGKGLEWVSYISSSGSTIYYADSVKGRFTISRDNAKNSLYLQMNSLRAEDTAVYYCARDFYDSKIFDYWGQGTLVTVSS VL: DIQMTQSPSSLSASVGDRVTITCRASQSISSYLNWYQQKPGKAPKLLIYAASSLQSGVPSRFSGSGSGTDFTLTISSLQPEDVGVYYCMEGLKTPFTFGPGTKLEIKR
